From paper PMC5137437
Where two headings read alike, the source gives them in different places.

What was measured:
Klf4 ZnF1-3 WT (E446) [1] = biological target: T1, Klf4 ZnF1-3 WT (E446) (Mus musculus, UniProt Q60793 396-483); experiment: X-ray crystallography
Klf4 ZnF1-3 WT (E446) [2] = biological target: T1, Klf4 ZnF1-3 WT (E446); experiment: X-ray crystallography; remark: listed apart in the source
Klf4 ZnF1-3 WT (E446) [3] = biological target: T1, Klf4 ZnF1-3 WT (E446); experiment: fluorescence polarization
Klf4 ZnF1-3 E446P [4] = biological target: T2, Klf4 ZnF1-3 E446P (Mus musculus, UniProt Q60793 396-483, E446P); experiment: fluorescence polarization
Klf4 ZnF1-3 E446P [5] = biological target: T2, Klf4 ZnF1-3 E446P; experiment: fluorescence polarization; remark: listed apart in the source
Klf4 ZnF1-3 E446D = Klf4 ZnF1-3 E446D (Mus musculus, UniProt Q60793 396-483, E446D); experiment: X-ray crystallography
Klf4 ZnF1-3 E446P [6] = biological target: T2, Klf4 ZnF1-3 E446P; experiment: X-ray crystallography
Klf4 ZnF1-3 E446P [7] = biological target: T2, Klf4 ZnF1-3 E446P; experiment: X-ray crystallography; remark: listed apart in the source
Klf4 ZnF1-3 WT (E446) [8] = biological target: T1, Klf4 ZnF1-3 WT (E446); experiment: fluorescence polarization; remark: listed apart in the source

T1 sequence (Q60793 396-483): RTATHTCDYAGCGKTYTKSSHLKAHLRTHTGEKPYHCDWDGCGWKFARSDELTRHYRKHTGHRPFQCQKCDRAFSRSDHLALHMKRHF
T2 sequence (Q60793 396-483 E446P): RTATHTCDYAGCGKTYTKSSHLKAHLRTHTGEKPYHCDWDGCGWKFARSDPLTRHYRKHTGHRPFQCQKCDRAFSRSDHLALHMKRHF
Klf4 ZnF1-3 E446D, sequence (Q60793 396-483 E446D): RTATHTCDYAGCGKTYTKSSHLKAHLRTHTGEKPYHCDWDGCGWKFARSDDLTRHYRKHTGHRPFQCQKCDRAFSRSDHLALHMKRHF

B1: TpG/CpA crystal duplex (dsDNA)
DNA 1: GAGGTGTGGC
DNA 2: GCCACACCTC
**Q.** Does B1 bind (Klf4 ZnF1-3 WT (E446) [1])?
**A.** binds

B2: TpG/5mCpA crystal duplex (dsDNA)
DNA 1: GAGGTGTGGC
DNA 2: GCCACACCTC
modifications: 5mC at position 5 of strand 2
**Q.** Does B2 bind (Klf4 ZnF1-3 WT (E446) [2])?
**A.** binds

B3: 5mCpG hemimethylated FP probe (dsDNA)
DNA 1: GAGGCGTGGC
DNA 2: TTGCCACGCCTC
modifications: 5mC at position 5 of strand 1; strand 2 unmethylated
**Q.** With B3 as the binder, how does the binding signal (Klf4 ZnF1-3 WT (E446) [3]) read?
**A.** 1.5 fold tighter than P1 with N1

**Q.** And the Kd (Klf4 ZnF1-3 E446P [4])?
**A.** < 5 nM

B4: CpG unmodified FP probe (dsDNA)
DNA 1: GAGGCGTGGC
DNA 2: TTGCCACGCCTC
**Q.** How did the binding signal (Klf4 ZnF1-3 E446P [5]) turn out when B4 was run?
**A.** ~4 fold tighter than P1 with N1

B5: CpG/CpG crystal duplex (dsDNA)
DNA 1: GAGGCGTGGC
DNA 2: GCCACGCCTC
**Q.** Does B5 bind (Klf4 ZnF1-3 E446D)?
**A.** binds

B6: TpG crystal duplex (E446P complex) (dsDNA)
DNA 1: GAGGTGTGGC
DNA 2: GCCACACCTC
modifications: methylation of the opposite-strand CpA not stated in the material
**Q.** Does B6 bind (Klf4 ZnF1-3 E446P [6])?
**A.** binds

B7: 5mCpG/5mCpG crystal duplex (dsDNA)
DNA 1: GAGGCGTGGC
DNA 2: GCCACGCCTC
modifications: 5mC at position 5 of strand 1 and position 5 of strand 2
**Q.** Does B7 bind (Klf4 ZnF1-3 E446P [7])?
**A.** binds

B8: TpG FP probe (dsDNA)
DNA 1: GAGGTGTGGC
DNA 2: TTGCCACACCTC
**Q.** Does B8 bind (Klf4 ZnF1-3 WT (E446) [8])?
**A.** binds
